Reference: patent US20240287501A1 (VIB VZW, published 2024)

Legend:
GFP-tagged PGI1 = target: T1, GFP-tagged PGI1 (Saccharomyces cerevisiae, UniProt P12709 2-554); test: co-immunoprecipitation, Nb coupled to NHS-agarose beads, lysate of the yeast strain expressing the GFP-tagged target, SDS-PAGE
T1 construct: Yeast GFP Fusion Collection strain; 88 kDa band; also called GFP-PGI1; Yeast GFP fusion collection GFP(+)12, H11; not shown: GFP tag
Experimental: (§1) Three PGI1-specific Nanobodies (55=Nb clone CA17455 corresponding to SEQ ID NO: 15, 56=CA17456-SEQ ID NO: 16, 57=CA17457-SEQ ID NO: 17) were characterized by co-immunoprecipitation assays. Each PGI1-specific Nanobodies was covalently linked to NHS-agarose beads. The beads that were functionalized with these PGI1-specific Nanobodies were incubated for an hour at 4° C. on a rotating device with either an EBY100 lysate or the lysate of the engineered Yeast strain expressing PGI1 (Yeast GFP fusion collection reference: GFP(+)12, H11) as a GFP-tagged protein. After washing, these beads were resuspended in SDS-PAGE loading dye and analyzed on SDS-PAGE (FIG. 7A). Separated proteins were transferred to a PVDF membrane and the Western blot (FIG. 7B) was developed with GFP-specific antibody to confirm the presence of GFP-tagged PGI1.

[1] = target: T2, PGI1 (native, un-tagged, from EBY100 lysate) (Saccharomyces cerevisiae, UniProt P12709 2-554); test: co-immunoprecipitation, Nb coupled to NHS-agarose beads, EBY100 yeast lysate (native target), SDS-PAGE
T2 construct: mature; Endogenous untagged protein, 61 kDa band; also called YBR196C; endogenous PGI1
Experimental: as §1

[2] = target: T3, SSA1 (native, from EBY100 lysate) (Saccharomyces cerevisiae, UniProt P10591 2-642); test: co-IP, Nb on NHS-agarose beads, EBY100 yeast lysate, SDS-PAGE
T3 construct: mature; Endogenous untagged protein; also called YAL005C

GFP-tagged SSA1 [3] = target: T4, GFP-tagged SSA1 (Saccharomyces cerevisiae, UniProt P10591 2-642); test: co-immunoprecipitation, Nb coupled to NHS-agarose beads, lysate of the yeast strain expressing the GFP-tagged target, Western blot anti-GFP
T4 construct: Yeast GFP Fusion Collection strain; also called Yeast GFP fusion collection GFP(+)10, E4; not shown: GFP tag
Experimental: (§2) Six SSA1-specific Nanobodies (60=Nb clone CA17560 corresponding to SEQ ID NO: 19, 61=CA17561-SEQ ID NO: 20, 62=CA17562-SEQ ID NO: 21, 63=CA17563-SEQ ID NO: 22, 64=CA17564-SEQ ID NO: 23, 65=CA17565-SEQ ID NO: 24) were characterized by co-immunoprecipitation assays. Each SSA1-specific Nanobodies was covalently linked to NHS-agarose beads. The beads that were functionalized with these SSA1-specific Nanobodies were incubated for an hour at 4° C. on a rotating device with either an EBY100 lysate or the lysate of the engineered Yeast strain expressing SSA1 (Yeast GFP fusion collection reference: GFP(+)10, E4) as a GFP-tagged protein. After washing, these beads were resuspended in SDS-PAGE loading dye and analyzed on SDS-PAGE (FIG. 6A). Separated proteins were transferred to a PVDF membrane and the Western blot (FIG. 6B) was developed with GFP-specific antibody to confirm the presence of GFP-tagged SSA1.

GFP-tagged ALD6 = target: T5, GFP-tagged ALD6 (Saccharomyces cerevisiae, UniProt P54115 2-500); test: as above
T5 construct: Yeast GFP Fusion Collection strain; also called Yeast GFP fusion collection GFP(+)15, F1; not shown: GFP tag
T5 sequence (looked up): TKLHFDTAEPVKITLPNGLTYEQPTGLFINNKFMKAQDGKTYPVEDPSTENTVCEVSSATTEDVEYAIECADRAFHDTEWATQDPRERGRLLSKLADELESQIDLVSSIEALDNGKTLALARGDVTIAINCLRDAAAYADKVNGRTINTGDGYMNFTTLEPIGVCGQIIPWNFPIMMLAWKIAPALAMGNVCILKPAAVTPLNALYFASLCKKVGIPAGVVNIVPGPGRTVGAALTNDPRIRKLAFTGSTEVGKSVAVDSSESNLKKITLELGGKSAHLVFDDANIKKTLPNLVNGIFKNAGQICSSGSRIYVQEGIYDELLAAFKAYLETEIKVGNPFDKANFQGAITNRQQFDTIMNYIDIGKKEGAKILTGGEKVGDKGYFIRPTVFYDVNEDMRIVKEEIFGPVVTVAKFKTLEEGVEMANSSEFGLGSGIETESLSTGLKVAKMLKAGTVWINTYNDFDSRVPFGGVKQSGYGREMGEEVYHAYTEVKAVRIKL
Experimental: One SIS1-specific Nanobody (44=Nb clone CA17444 corresponding to SEQ ID NO: 9), three ALD6-specific Nanobodies (53=CA17453-SEQ ID NO: 10, 54=CA17454-SEQ ID NO: 11, 60=CA17460-SEQ ID NO: 12), two BMH1-specific Nanobodies (58=CA17458-SEQ ID NO: 13, 59=CA17459-SEQ ID NO: 14) were characterized by co-immunoprecipitation assays. Each target-specific Nanobodies was covalently linked to NHS-agarose beads. The beads that were functionalized with these target-specific Nanobodies were incubated for an hour at 4° C. on a rotating device with either an EBY100 lysate or the lysate of the engineered Yeast strain expressing the target (Yeast GFP fusion collection reference for SIS1: GFP(+)22, E5, for ALD6: GFP(+)15, F1, for BMH1: GFP(+)27, D5) as a GFP-tagged protein. After washing, these beads were resuspended in SDS-PAGE loading dye and analyzed on SDS-PAGE (FIG. 8A). Separated proteins were transferred to a PVDF membrane and the Western blot (FIG. 8B) was developed with GFP-specific antibody to confirm the presence of GFP-tagged targets.

[4] = target: T6, ALD6 (native, from EBY100 lysate) (Saccharomyces cerevisiae, UniProt P54115 2-500); test: co-IP, Nb on NHS-agarose beads, EBY100 yeast lysate, SDS-PAGE
T6 construct: mature; Endogenous untagged protein; also called YPL061W
T6 sequence (looked up): T5 sequence (looked up)

[5] = target: T7, PDC1 (native, from EBY100 lysate) (Saccharomyces cerevisiae, UniProt P06169 2-563); test: co-immunoprecipitation, Nb coupled to NHS-agarose beads, EBY100 yeast lysate (native target), SDS-PAGE
T7 construct: mature; Endogenous untagged protein; also called YLR044C
T7 sequence (looked up): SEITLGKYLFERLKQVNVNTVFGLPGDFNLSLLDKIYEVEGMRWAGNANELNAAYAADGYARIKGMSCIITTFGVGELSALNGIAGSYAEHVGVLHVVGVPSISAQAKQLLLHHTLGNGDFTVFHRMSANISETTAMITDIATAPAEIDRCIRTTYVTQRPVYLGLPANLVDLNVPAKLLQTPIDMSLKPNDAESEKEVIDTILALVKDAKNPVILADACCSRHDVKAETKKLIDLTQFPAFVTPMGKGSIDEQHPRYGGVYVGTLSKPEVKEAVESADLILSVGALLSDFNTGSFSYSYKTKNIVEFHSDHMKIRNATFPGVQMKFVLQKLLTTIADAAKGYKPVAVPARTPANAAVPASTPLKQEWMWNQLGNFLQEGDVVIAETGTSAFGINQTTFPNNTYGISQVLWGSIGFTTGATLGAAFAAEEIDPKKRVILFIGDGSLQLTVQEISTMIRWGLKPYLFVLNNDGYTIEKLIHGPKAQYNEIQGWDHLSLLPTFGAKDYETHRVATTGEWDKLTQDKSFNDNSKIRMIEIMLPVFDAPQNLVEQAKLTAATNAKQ
Experimental: (§3) Two PDC1-specific Nanobodies (51=Nb clone CA17451 corresponding to SEQ ID NO: 7, 52=CA17452-SEQ ID NO: 8) were characterized by co-immunoprecipitation assays. Each PDC1-specific Nanobodies was covalently linked to NHS-agarose beads. The beads that were functionalized with these PDC1-specific Nanobodies were incubated for an hour at 4° C. on a rotating device with either an EBY100 lysate or the lysate of the engineered Yeast strain expressing PDC1 (Yeast GFP fusion collection reference: GFP(+)12, F8) as a GFP-tagged protein. After washing, these beads were resuspended in SDS-PAGE loading dye and analyzed on SDS-PAGE (FIG. 5A). Separated proteins were transferred to a PVDF membrane and the Western blot (FIG. 5B) was developed with GFP-specific antibody to confirm the presence of GFP-tagged PDC1.

GFP-tagged PDC1 = target: T8, GFP-tagged PDC1 (Saccharomyces cerevisiae, UniProt P06169 2-563); test: co-immunoprecipitation, Nb coupled to NHS-agarose beads, lysate of the yeast strain expressing the GFP-tagged target, SDS-PAGE
T8 construct: Yeast GFP Fusion Collection strain; also called Yeast GFP fusion collection GFP(+)12, F8; not shown: GFP tag
T8 sequence (looked up): T7 sequence (looked up)
Experimental: as §3

GFP-tagged SSA1 [6] = target: T4, GFP-tagged SSA1; test: as above
Experimental: as §2

T4 sequence (P10591 2-642): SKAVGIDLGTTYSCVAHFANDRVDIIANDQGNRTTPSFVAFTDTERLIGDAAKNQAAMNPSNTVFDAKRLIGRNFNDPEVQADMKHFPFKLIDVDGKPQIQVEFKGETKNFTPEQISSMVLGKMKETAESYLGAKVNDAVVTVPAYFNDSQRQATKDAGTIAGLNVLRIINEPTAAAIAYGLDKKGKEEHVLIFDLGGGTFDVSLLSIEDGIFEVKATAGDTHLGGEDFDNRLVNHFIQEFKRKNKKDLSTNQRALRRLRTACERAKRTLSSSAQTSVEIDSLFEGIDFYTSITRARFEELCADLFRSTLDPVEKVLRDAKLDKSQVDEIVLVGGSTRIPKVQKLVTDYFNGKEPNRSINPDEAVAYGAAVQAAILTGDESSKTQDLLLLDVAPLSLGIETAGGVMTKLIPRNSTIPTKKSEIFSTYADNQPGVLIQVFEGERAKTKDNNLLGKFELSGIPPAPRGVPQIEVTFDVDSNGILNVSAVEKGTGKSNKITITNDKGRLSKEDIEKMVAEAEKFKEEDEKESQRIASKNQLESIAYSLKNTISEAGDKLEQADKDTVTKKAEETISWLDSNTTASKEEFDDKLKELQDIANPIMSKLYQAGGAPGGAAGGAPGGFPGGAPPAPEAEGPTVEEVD
T3 sequence (P10591 2-642): as above
T2 sequence (P12709 2-554): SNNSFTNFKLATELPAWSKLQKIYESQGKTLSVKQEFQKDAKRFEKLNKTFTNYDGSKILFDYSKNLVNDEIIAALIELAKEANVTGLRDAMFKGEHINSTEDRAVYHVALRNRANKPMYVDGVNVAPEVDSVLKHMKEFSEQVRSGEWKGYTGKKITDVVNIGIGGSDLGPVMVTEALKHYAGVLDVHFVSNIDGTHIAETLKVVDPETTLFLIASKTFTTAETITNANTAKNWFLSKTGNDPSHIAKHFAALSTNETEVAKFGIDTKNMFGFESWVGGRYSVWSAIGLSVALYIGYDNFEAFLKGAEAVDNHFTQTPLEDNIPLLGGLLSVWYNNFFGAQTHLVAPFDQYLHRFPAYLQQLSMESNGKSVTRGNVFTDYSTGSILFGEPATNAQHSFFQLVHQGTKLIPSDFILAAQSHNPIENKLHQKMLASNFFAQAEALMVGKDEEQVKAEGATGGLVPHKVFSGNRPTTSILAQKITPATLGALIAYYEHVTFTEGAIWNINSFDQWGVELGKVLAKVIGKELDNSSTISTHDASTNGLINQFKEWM
T1 sequence (P12709 2-554): as above

B1: CA17456 (VHH)
VHH: QVQLVESGGGLVQPGGSLRLSCAASRSIVTINVMGWYRQAPGKEREFVAGATSGGSTDYADSVKGRFTISRDNAKNTVYLQMNSLKPEDTAVYYCNLRGTGYNYGENYWGKGTQVTVSS
notes: C-terminal 6xHis-EPEA tag is part of the entry
binding result (GFP-tagged PGI1): binds | binding result [1]: binds

B2: CA17565 (VHH)
VHH: QVQLVESGGGRVQPGGSLRLSCVASGFTFTSYGMSWYRQTPGKEREFVAAISSESTWADYGDSVKGRFTISRDNAKKMVYLQMNSLKPDDTAVYYCNRDQVPWPTWGPGTQVTVSS
notes: as for B1
binding result [2]: binds | binding result (GFP-tagged SSA1 [3]): binds

B3: CA17454 (VHH)
VHH: QVQLVESGGGLVQPGGSLRLSCAASGSIFSRNYIAWYRQAPGKQRELVARKTQSGATVYADSVKGRFTISTNNAKNTMYLQMNILKPEDTAVYYCNAGGLIGSWGQGTQVTVSS
notes: as for B1
binding result (GFP-tagged ALD6): binds | binding result [4]: binds

B4: CA17455 (VHH)
VHH: QVQLVESGGGLVQPGGSLRLSCAASGITFPSYRLSWYRQAPGKERELVAAITSDGGTTNYADFVKGRFTISRDNTKNTVYLQMNSLKPEDTAVYYCKAQYFSTPLTYWGQGTQVTVSS
notes: C-terminal 6xHis-EPEA tag is part of the entry; also called PGI1-specific trapper/stripper
binding result (GFP-tagged PGI1): binds | binding result [1]: binds

B5: CA17457 (VHH)
VHH: QVQLVESGGGLVQTGGSLRLSCAASGGHFSNLAMGWFRQAPGKEREFVAAIGRSQFNLLYSNFVKGRFTISRDNAENTVYLQLNSLNSEDTAIYYCASSGGVSDWRGIMTTGARLARNYDYWGQGTQVTVSS
notes: as for B1
binding result (GFP-tagged PGI1): binds | binding result [1]: binds

B6: CA17452 (VHH)
VHH: QVQLVESGGGLVQAGASLTLSCAASGRTFNTYSMHWFRQAPGKEREFVAATNWGGNSKFYADSVRGRFTISRDNTKNMVYLQMNSLKPEDTAVYYCAAHRTVVGKTPDYWGQGTQVTVSS
notes: as for B1
binding result [5]: binds | binding result (GFP-tagged PDC1): binds

B7: CA17460 (VHH)
VHH: QVQLVESGGGLVQPGDSLRLSCAASGFTVSTNTMTWVRQAPGKGLEWVSTKYSTGGTTYANSVKGRFTISRDNAKNTLYLQMNNLKPEDTAVYYCGGADYRGQGTQVTVSS
notes: as for B1
binding result (GFP-tagged ALD6): binds | binding result [4]: binds

B8: CA17451 (VHH)
VHH: QVQLVESGGGLVQPGGSLRLSCAASGISFSINTLGWYRQAPGKQRELVATVTTGGSTYYVDSAKGRFTVSRDNAKNTVYLQMNSLNSEDTAVYYCKLERYGVWGQGTQVTVSS
notes: as for B1
binding result [5]: binds | binding result (GFP-tagged PDC1): binds

B9: CA17561 (VHH)
VHH: QVQLVESGGGLVQAGGSLRLSCAASTRTFSNYVMAWFRQAPGKEREFVGAINWSGGTEYYADSVKGRFTISRDNAKNTVYLQMNDLNPEDTANYYCAARRGTIARTALVKYLEYDYWGQGTQVTVSS
notes: as for B1
binding result (GFP-tagged SSA1 [6]): binds | binding result [2]: binds

B10: CA17564 (VHH)
VHH: QVQLVESGGGLVQPGDSLRLSCVVSVQHFGNYIVGWFRQPPGKEREFVSAISRGLRTYYADSVKGRVTISRDNAKNSVYLQMNSLKPEDTAVYYCAGSRLLEGAPRDSRGYNNWGQGTQVTVSS
notes: as for B1
binding result [2]: binds | binding result (GFP-tagged SSA1 [3]): binds

B11: CA17453 (VHH)
VHH: QVQLVESGGGVVQPGGSLRLSCAASGRIFIRSAWYRQAPGKQRALVASIFSGGTTNYADSVKGRFTISRDNAKNTVILEMNNLKPEDTAVYYCNVRVRSGTDYWGQGTQVTVSS
notes: as for B1
binding result (GFP-tagged ALD6): binds | binding result [4]: binds
